Experimental data as given in patent US20210008175A1, “BACTERIOPHAGE LYSIN AND ANTIBIOTIC COMBINATIONS AGAINST GRAM POSITIVE BACTERIA” (priority 2012, published 2021).

Tested on: MRSA S. aureus strains
Assay: Dual agent MIC assay (PlySs2 and daptomycin together, broth microdilution)
Assay type: cell-based
Conditions: for MIC combo: PlySs2 and daptomycin combined; for MIC alone: single-agent

B1: PlySs2: bacteriophage lysin derived from Streptococcus suis, amino acid sequence of FIG. 29 (SEQ ID NO: 1), N-terminal CHAP and C-terminal SH3 domain (protein, listed as Streptococcus suis)
chain: MTTVNEALNNVRAQVGSGVSVGNGECYALASWYERMISPDATVGLGAGVGWVSGAIGDTISAKNIGSSYNWQANGWTVSTSGPFKAGQIVTLGATPGNPYGHVVIVEAVDGDRLTILEQNYGGKRYPVRNYYSAASYRQQVVHYITPPGTVAQSAPNLAGSRSYRETGTMTVTVDALNVRRAPNTSGEIVAVYKRGESFDYDTVIIDVNGYVWVSYIGGSGKRNYVATGATKDGKRFGNAWGTFK
B1 showed a Fold reduction (MRSA strain 223) of 4, an MIC combo (MRSA strain 223) of 0.5 µg/mL and an MIC alone (MRSA strain 223) of 2 µg/mL. It also gave a Fold reduction (MRSA strain 241) of 2, an MIC combo (MRSA strain 241) of 2 µg/mL and an MIC alone (MRSA strain 241) of 4 µg/mL. The Fold reduction (MRSA strain 263) was 4, the MIC combo (MRSA strain 263) was 2 µg/mL and the MIC alone (MRSA strain 263) was 8 µg/mL. The Fold reduction (MRSA strain 269 (MW2)) was 4, the MIC combo (MRSA strain 269 (MW2)) was 2 µg/mL and the MIC alone (MRSA strain 269 (MW2)) was 8 µg/mL. It also gave a Fold reduction (MRSA strain 270) of 4, an MIC combo (MRSA strain 270) of 2 µg/mL and an MIC alone (MRSA strain 270) of 8 µg/mL. For the same molecule, the Fold reduction (MRSA strain 553) was 2, the MIC combo (MRSA strain 553) was 1 µg/mL and the MIC alone (MRSA strain 553) was 2 µg/mL. It also gave a Fold reduction (MRSA strain 650) of 2, an MIC combo (MRSA strain 650) of 4 µg/mL and an MIC alone (MRSA strain 650) of 8 µg/mL. For the same molecule, the Fold reduction (MRSA strain 827) was 2, the MIC combo (MRSA strain 827) was 4 µg/mL and the MIC alone (MRSA strain 827) was 8 µg/mL. It also gave a Fold reduction (MRSA strain 828) of 4, an MIC combo (MRSA strain 828) of 2 µg/mL and an MIC alone (MRSA strain 828) of 8 µg/mL. It also gave a Fold reduction (MRSA strain 829) of 2, an MIC combo (MRSA strain 829) of 4 µg/mL and an MIC alone (MRSA strain 829) of 8 µg/mL. The Fold reduction (MRSA strain 830) was 2, the MIC combo (MRSA strain 830) was 2 µg/mL and the MIC alone (MRSA strain 830) was 4 µg/mL. It also gave a Fold reduction (MRSA strain 833) of 4, an MIC combo (MRSA strain 833) of 2 µg/mL and an MIC alone (MRSA strain 833) of 8 µg/mL. For the same molecule, the “fold reduction in the effective MIC” value (PlySs2 and daptomycin together, a dozen MRSA strains) was 2-4 fold.
